From article PMC10079538, “Unusual PDGFRB fusion reveals novel mechanism of kinase activation in Ph-like B-ALL” (Leukemia, 2023)

Target: the molecule itself
Experiment: SEC; elution of the recombinant protein purified from insect cells; molecular weight from the elution

B1: recombinant truncated PDGFRB (PDGFRB^584-1106) (domain or fragment, human, UniProt P09619 584-1106, looked up)
chain: PMQLPYDSTWELPRDQLVLGRTLGSGAFGQVVEATAHGLSHSQATMKVAVKMLKSTARSSEKQALMSELKIMSHLGPHLNVVNLLGACTKGGPIYIITEYCRYGDLVDYLHRNKHTFLQHHSDKRRPPSAELYSNALPVGLPLPSHVSLTGESDGGYMDMSKDESVDYVPMLDMKGDVKYADIESSNYMAPYDNYVPSAPERTCRATLINESPVLSYMDLVGFSYQVANGMEFLASKNCVHRDLAARNVLICEGKLVKICDFGLARDIMRDSNYISKGSTFLPLKWMAPESIFNSLYTTLSDVWSFGILLWEIFTLGGTPYPELPMNEQFYNAIKRGYRMAQPAHASDEIYEIMQKCWEEKFEIRPPFSQLVLLLERLLGEGYKKKYQQVDEEFLRSDHPAILRSQARLPGFHGLRSPLDTSSVLYTAVQPNEGDNDYIIPLPDPKPEVADEGPLEGSPSLASSTLNEVNTSSTISCDSPLEPQDEPEPEPQLELQVEPEPELEQLPDSGCPAPRAEAEDSFL
notes: PDGFRB, human, residues 584-1106; truncated form encoded by the CD74^intr::PDGFRB fusion, lacks the juxtamembrane region; methods are in the supplementary file; also called truncated PDGFRB^584-1106; source: insect cells, expressed and purified
  stoichiometry N: 2
